Assay: soluble on expression in E. coli; label from the status in PepcDB or PDB records

Sequence | soluble on expression in E. coli
MAHHHHHHMSATPSNVLLGLFDGYMSHKRDQLTSETKLGGTPTYFPPLSDADKAQIRRWTSCGVCGHAMSLLTQAYSPLPTAPASRPHHRMVYVFGCNSGYCSRQPTSSMVAFSVQVDQEDEQALAENAEEEDEDEVIETGPLLPSELPEAVLPPCYVYIDAEPSKEAVVPTDIERELIKMAEENARSTVTDEELQQLEQTVDLKDTKTDYYYEKFRSRVARAPNQVLRYYERTVAAAAATSASLRAKDVKPIFMNPDKVKAMVTIPACACCGSTQTAELQVMPTSLYYLHVSEYTALARADAAAMAAPAGTLAAASTHSNVVDTQSPVASPSASTTTCKASALSGAATGTEKAIPANVDDGCDFGTITVYVCAKDCAARQHGVVLRRETLCVEEAPTMRDEERAGKADAAKAGTDGATHKVTLRELLHGNGEGGEDMEDDDEGHIDDEAVSTA | soluble
MSEHVFETEQVYPALGKVEIAPEVIEVIAGIAASEVDGIAQMRGNFAAGVAERFGKKHHGKGVKVDLRDDGVVIDLYCLVQFGASIPNVAKKVQENVRQALWNMTGLEASEVNVHIVGIQFEGGKQEQGVVEQ | not soluble
MPRPALRSRSLRRVYVKLPSGKTVIHYERKRNDIAICAICKKPLHGVKTNFLHKYSKSEKRPERPFGGYLCSSCLTQLIKATVRQQLQ | soluble
MQYINYRENRRRGTADFPLEYYHVTASHPQYVMSFHWHVEFELIRILSGSLTVTIDEIEFLAEAGDSIFIPAGSIHSGIPDDCVYECLVFDMNMLMNKTDSCCRFLRQITDHEVSVQTHYPKICNTIHRTLWTLFDAAASKKEGYQLVVFGAMYQFFGTLFSEGFCKNAPDEEHRSHKRILQLKQALEFMESSYNLPLTLEEISGSVNMSPKYFCRFFHEMTHRTPIDYLNYYRIERACYQLITTNLSITEIAYASGFNDLSYFIKTFKKYKGTTPKKYLKI | not soluble
SADPGPDPESESESVFPREVGLFADSYSEKSQFCFCGHVLTITQNFGSRLGVAARVWDAALSLCNYFESQNVDFRGKKVIELGAGTGIVGILAALQGGDVTITDLPLALEQIQGNVQANVPAGGQAQVRALSWGIDHHVFPANYDLVLGADIVYLEPTFPLLLGTLQHLCRPHGTIYLASKMRKEHGTESFFQHLLPQHFQLELAQRDEDENVNIYRARHREPRPA | not soluble
MIEFHNVHKTYRVAGKEIPALHPTNLRVDDGQVFGIIGHSGAGKSTLLRLINRLETPSGGQIVVDGEDVTALDANGLRRFRQQVGMIFQHFNLLASRTVADNVAMPLTLAGDMPRKQIDQRVAELLERVGLSDHAKKYPAQLSGGQKQRVGIARALATKPKILLCDEATSALDPQTTASVLQLLAEINRELKLTIVLITHEMDVIRRVCDQVAVMDAGVIVEQGKVADVFLHPQHSTTKRFVQEDDQVDENEQRDDFAHVQGRIVRLTFQGDATYAPLLGTVARETGVDYSILAGRIDRIKDTPYGQLTLAITGGDMDAAFARFTAADVHMEVLR | not soluble
MAHHHHHHMGTLEAQTQGPGSMSMAQQFIDIGANLTDDNYFGNYHGKHYHEEDIDVVLQRAERNGLSHIIITSGCLNDFKKAIEIINKYQNLTNIKLVTTIGVHPTRTNELKQEGYLDELLLLCEKNIDKVVAIGEIGLDYERLQFSDKETQLSGYRTLSILHQKYPYLPFFFHCRKSWSDLCQLNKELGYNGCKGVVHCFDGTEEEMNQILNEGWDIGVTGNSLQSIELLNVMKQIPIERLHIETDCPYCGIKKTSAGFKYLKEKDFGVKVEKYQRNKYVQRRNEPSNIIDIAIIMSSIKHISLFEFVNKVYSNSMNMYFPTMN | soluble
MGHHHHHHMAGVSEYELPEDPRWELPRDRLVLGKPLGEGAFGQVVLAEAIGLDKDKPNRVTKVAVKMLKSDATEKDLSDLISEMEMMKMIGKHKNIINLLGACTQDGPLYVIVEYASKGNLREYLQARRPPGLEFSFNPSHNPEEQLSSKDLVSCAYQVARGMEYLASKKCIHRDLAARNVLVTEDNVMKIADFGLARDIHHIDYYKKTTNGRLPVKWMAPEALFDRIYTHQSDVWSFGVLLWEIFTLGGSPYPGVPVEELFKLLKEGHRMDKPSNCTNELYMMMRDCWHAVPSQRPTFKQLVEDLDRIVALTSNQEYLDLSMPLD | soluble
HVYILGKIPSPLTLIKAFADVRPSFVIMVPLIIEKLYHKAIAPKIKTPLIKFLLRLPVLKKVIHKSIRSKLIESFGGNFRQIIIGGAALNDEVAHFLYRIGFPLTVG | not soluble
